The first experiment deals with T1, HLA-A*01:01 (human).
T1 construct: Peptide-receptive MHC monomer made by UV cleavage of a UV-sensitive peptide
The experiment is described as follows: UV-ligand exchange, anti-b2m ELISA; exchange yield grade (+ >10%, ++ >20%, +++ >50, ++++ >75%). The text has this:
(§1) Candidate peptides for T cell based therapies according to the present invention were further tested for their MHC binding capacity (affinity). The individual peptide-MHC complexes were produced by UV-ligand exchange, where a UV-sensitive peptide is cleaved upon UV-irradiation, and exchanged with the peptide of interest as analyzed. Only peptide candidates that can effectively bind and stabilize the peptide-receptive MHC molecules prevent dissociation of the MHC complexes. To determine the yield of the exchange reaction, an ELISA was performed based on the detection of the light chain (β2m) of stabilized MHC complexes. The assay was performed as generally described in Rodenko et al. (Rodenko et al., 2006).
(§2) 96 well MAXISorp plates (NUNC) were coated over night with 2 ug/ml streptavidin in PBS at room temperature, washed 4× and blocked for 1 h at 37° C. in 2% BSA containing blocking buffer. Refolded HLA-A*02:01/MLA-001 monomers served as standards, covering the range of 15-500 ng/ml. Peptide-MHC monomers of the UV-exchange reaction were diluted 100-fold in blocking buffer. Samples were incubated for 1 h at 37° C., washed four times, incubated with 2 ug/ml HRP conjugated anti-β2m for 1 h at 37° C., washed again and detected with TMB solution that is stopped with […]. Absorption was measured at 450 nm. Candidate peptides that show a high exchange yield (preferably higher than 50%, most preferred higher than 75%) are generally preferred for a generation and production of antibodies or fragments thereof, and/or T cell receptors or fragments thereof, as they show sufficient avidity to the MHC molecules and prevent dissociation of the MHC complexes.
Regarding GSTMVEHNY, the peptide exchange yield was 20 to 50%.
Same read-out and setting: for YTERDGSAMVY the value was 50 to 75%; for ITAQNHGY, 20 to 50%; for RSDPVTLDV, 50 to 75%.
On the same count and under the same terms, for RSDPVTLNV the value was 50 to 75%; for ITFGERFEY, 50 to 75%; for LSAGSGPGQY, 50 to 75%.
LTDYLKNTY returned a peptide exchange yield of 50 to 75%.
Same read-out and setting: with YTDKLQHY the figure was 50 to 75%.
The molecule LSLIDRLVLY had a peptide exchange yield of 20 to 50%.
On the same count and under the same terms, with EVSNGKWLLY the figure was 50 to 75%.

The target of another experiment is T2, HLA-A*03:01 (human).
T2 construct: Peptide-receptive MHC monomer made by UV cleavage of a UV-sensitive peptide
The experiment is described as above.
Excerpt: as §1, §2
As for SSASLAHMK, the peptide exchange yield was in the range of 20 to 50%.
Still for that read-out and setting: for KMMADYGIRK the value was 50 to 75%; for AVLDLGSLLAK, 50 to 75%; for ATAYGSTVSK, 20 to 50%.
Molecule TAYGSTVSK gave a peptide exchange yield of 50 to 75%.
On the same count and under the same terms, with ATWSASLKNK the figure was 50 to 75%.
Still for that read-out and setting: with KVLGPNGLLK the figure was 20 to 50%; with RMPPPLPTR, 20 to 50%; with SSYSRSSAVK, 50 to 75%.
In turn, TVASLHTEK yielded a peptide exchange yield of 20 to 50%.
Same read-out and setting: with STNNEGNLK the figure was 20 to 50%; with KIKEHVRSK, 20 to 50%; with STKSTSPPK, 20 to 50%.
The same measure, in the same setting: for KLYPTYSTK the value was 20 to 50%.
Still for that read-out and setting: with SVKLQGTSK the figure was 20 to 50%; with VLGPNGLLK, 20 to 50%; with ALDKPGKSK, 20 to 50%.
ATYEGIQKK gave a peptide exchange yield of 20 to 50%.
Still for that read-out and setting: with RIYNGIGVSR the figure was 50 to 75%; with QVPTFTIPK, 20 to 50%.
In the case of RLFESSFHY, the peptide exchange yield lay in the range of 50 to 75%.
As for ALLGVIIAK, the peptide exchange yield was in the range of 20 to 50%.
Still for that read-out and setting: with AVATKFVNK the figure was 20 to 50%; with GSAALYLLR, 20 to 50%.
In turn, FSLAGALNAGFK registered a peptide exchange yield of 20 to 50%.
KTYVGHPVKM gave a peptide exchange yield of 50 to 75%.
Still for that read-out and setting: with STQDTLLIK the figure was 20 to 50%.
On the same count and under the same terms, with ATMQSKLIQK the figure was 50 to 75%.
In turn, GTESGTILK had a peptide exchange yield of 20 to 50%.
Turning to KSFDRHFEK, the peptide exchange yield was in the range of 50 to 75%.
Still for that read-out and setting: for ATALSLSNK the value was 50 to 75%.
Same read-out and setting: with STTKLYLAK the figure was 20 to 50%; with STSHHLVSR, 20 to 50%.
SAFGYVFPK showed a peptide exchange yield of 50 to 75%.
As for GSRLGKYYVK, the peptide exchange yield is 10 to 20%.
Same read-out and setting: for KTPSGALHRK the value was 20 to 50%; for KMAAWPFSR, 50 to 75%.
The same measure, in the same setting: with IIAKKYFFK the figure was 20 to 50%; with GSYSALLAKK, 50 to 75%.
Still for that read-out and setting: for KIIAPLVTR the value was 20 to 50%.
Turning to RLSPNDQYK, the peptide exchange yield lay in the range of 20 to 50%.
The same measure, in the same setting: with QLYSKFLLK the figure was 50 to 75%.
MLLQQPLIY returned a peptide exchange yield of 20 to 50%.
The same measure, in the same setting: for KLFGTSGQK the value was 50 to 75%; for GVIIAKKYFFK, 20 to 50%.
Take KLGNNPVSK: the peptide exchange yield lay within 20 to 50%.

A further experiment addresses T3, HLA-B*44:02 (human).
T3 construct: Peptide-receptive MHC monomer made by UV cleavage of a UV-sensitive peptide
The description is as above.
Excerpt: as §1, §2
ARLTPIPFGL yielded a peptide exchange yield of 10 to 20%.
Still for that read-out and setting: for EEVDVPIKLY the value was 20 to 50%.

The record behind these values is patent US20180291082A1 (IMMATICS BIOTECHNOLOGIES, published 2018).
